This note sets out measurements from patent publication US20210369850, “COMPOUNDS AND […] USES […]” (CENTAURI THERAPEUTICS LIMITED, published 2021).

What all share (conditions): tags: endogenous on A431 cells (ATCC CRL-1555)
Data set [1] deals with T1, EGFR (epidermal growth factor receptor) (Homo sapiens, UniProt P00533 P00533:25-1210). Briefly: flow. The protocol:
(§1) A secondary phycoerythrin labelled anti-human IgG antibody was used to detect binding of alpha-galactosyl IgG antibody to the compound.
(§2) A431 cells (ATCC CRL-1555) were harvested and resuspended at 5×10⁶ cells/mL in phosphate buffered saline (PBS) (Sigma D8662)+0.1% BSA (Bovine Serum Albumin-Sigma A2153)+0.1 mg/mL Yeast t-RNA (Invitrogen 15401-011)+5 mM MgCl₂ (Sigma M1028) and incubated on ice for 30 minutes to block. 5×10⁵ cells were then incubated with compound at various concentrations as described below or buffer alone at room temperature, shaking at 450 rpm for 1 hour. The cells were washed with 3×200 μL PBS+0.1% BSA, prior to adding 50 μL of Anti-alpha galactosyl IgG antibody (custom purification from human IVIG, Rockland Immunochemicals, Inc.) at 45 μg/mL in PBS+0.1% BSA and incubating at 4° C. for 1 hour. […] After a final wash of 3×200 μL PBS+0.1% BSA the cells were resuspended in 200 μL PBS+0.1% BSA and evaluated on a flow cytometer (FC500 Beckman Coulter). Data from all samples were analysed in the Kaluza software package (Beckman Coulter).
(§3) The fold shift over background was calculated by dividing the Mean Fluorescence Intensity (MFI) obtained in the presence of 10 nM or 1 μM alphamer by the Mean Fluorescence Intensity (MFI) obtained in the absence of alphamer. […]

Data set [2] concerns the target T1, EGFR (epidermal growth factor receptor). Briefly: flow; at 1 uM (5.7 at 10 nM); same conditions. The protocol: as §1, §2, §3
Data set [3] shares this target. As to the kind of experiment: flow; at 1 uM (7.0 at 10 nM); same conditions. The protocol:
as §1, §2, §3

The target is the same in data set [4]. As to the kind of experiment: flow; at 1 uM (6.4 at 10 nM); same conditions. The protocol:
as §1, §2, §3

Data set [5] shares this target. As to the kind of experiment: flow; at 1 uM (6.5 at 10 nM); same conditions. The protocol:
as §1, §2, §3

Data set [6] has the same target. Briefly: flow; at 1 uM (7.1 at 10 nM); same conditions. The protocol:
as §1, §2, §3

Data set [7] shares this target. Briefly: flow; at 1 uM (5.5 at 10 nM); same conditions. The protocol: as §1, §2, §3
Data set [8] shares this target. As to the kind of experiment: flow; at 1 uM (4.2 at 10 nM); same conditions. The protocol:
as §1, §2, §3

Data set [9] has the same target. Briefly: flow; at 1 uM (5.8 at 10 nM); same conditions. The protocol:
as §1, §2, §3

Data set [10] has the same target. Briefly: flow; at 1 uM (3.8 at 10 nM); same conditions. The protocol: as §1, §2, §3
The target is the same in data set [11]. As to the kind of experiment: flow; at 1 uM (5.9 at 10 nM); same conditions. The protocol: as §1, §2, §3
For data set [12] the target is unchanged. Briefly: flow; at 1 uM (2.5 at 10 nM); same conditions. The protocol: as §1, §2, §3

B1: RNA aptamer conjugate 4 (Example 26) (ssRNA)
RNA: GGGAUUUAAUCGCCGUAGAAAAGCAUGUCAAAGCCGGAACCC
modifications: as N22 but 5' alpha-Gal moiety from Preparation 90
Turning to B1, in [1], the binding signal is 3.3 fold MFI over background.

B2: RNA aptamer conjugate 10 (Example 32) (ssRNA)
RNA: B1 RNA
modifications: as N22 but 5' alpha-Gal moiety from Preparation 89
B2 had a binding signal in [2] of 10.4 fold MFI over background.

B3: RNA aptamer conjugate 16 (Example 38) (ssRNA)
RNA: B1 RNA
modifications: as N22 but 5' alpha-Gal moiety from Preparation 98
The molecule B3 came in with a binding signal in data set [3] of 13.6 fold MFI over background.

B4: RNA aptamer conjugate 13 (Example 35) (ssRNA)
RNA: B1 RNA
modifications: as N22 but 5' alpha-Gal moiety from Preparation 96
B4: in data set [4], the binding signal worked out at 12.3 fold MFI over background.

B5: RNA aptamer conjugate 17 (Example 39) (ssRNA)
RNA: B1 RNA
modifications: as N22 but 5' alpha-Gal moiety from Preparation 92
For the molecule B5, the binding signal in [5] is 10.4 fold MFI over background.

B6: RNA aptamer conjugate 14 (Example 36) (ssRNA)
RNA: B1 RNA
modifications: as N22 but 5' alpha-Gal moiety from Preparation 95
Take B6: the binding signal in [6] worked out at 12.4 fold MFI over background.

B7: RNA aptamer conjugate 15 (Example 37) (ssRNA)
RNA: B1 RNA
modifications: as N22 but 5' alpha-Gal moiety from Preparation 97
As for B7, the binding signal in data set [4] was 12.2 fold MFI over background.

B8: RNA aptamer conjugate 8 (Example 30) (ssRNA)
RNA: B1 RNA
modifications: as N22 but 5' alpha-Gal moiety from Preparation 83
In [7], B8 came in with a binding signal of 10.5 fold MFI over background.

B9: RNA aptamer conjugate 12 (Example 34) (ssRNA)
RNA: B1 RNA
modifications: as N22 but 5' alpha-Gal moiety from Preparation 91
Consider B9, for which the binding signal in data set [8] turned out to be 7.6 fold MFI over background.

B10: RNA aptamer conjugate 6 (Example 28) (ssRNA)
RNA: B1 RNA
modifications: as N22 but 5' alpha-Gal moiety from Preparation 86
B10 gave a binding signal in data set [8] of 8.1 fold MFI over background.

B11: RNA aptamer conjugate 9 (Example 31) (ssRNA)
RNA: B1 RNA
modifications: as N22 but 5' alpha-Gal moiety from Preparation 87
As for B11, in [9], the binding signal is 12.5 fold MFI over background.

B12: RNA aptamer conjugate 7 (Example 29) (ssRNA)
RNA: B1 RNA
modifications: as N22 but 5' alpha-Gal moiety from Preparation 84
For the molecule B12, in data set [10], the binding signal worked out at 8.2 fold MFI over background.

B13: RNA aptamer conjugate 11 (Example 33) (ssRNA)
RNA: B1 RNA
modifications: as N22 but 5' alpha-Gal moiety from Preparation 88
B13 showed a binding signal in data set [11] of 11 fold MFI over background.

B14: RNA aptamer conjugate 5 (Example 27) (ssRNA)
RNA: B1 RNA
modifications: as N22 but 5' alpha-Gal moiety from Preparation 85
In data set [12], B14 came in with a binding signal of 4.1 fold MFI over background.
